Measurements: publication PMC3983144 (Bioconjugate chemistry, 2014)
Square brackets hold non-standard residues; d marks the D form. Nle = CCCC[C@H](N)C(=O)O

Molecular target: melanocortin 1 receptor (mouse (endogenous in B16F10), UniProt Q01727 1-315)
Assay: radioligand binding

melanocortin 1 receptor, sequence (Q01727 whole entry, one chain of several): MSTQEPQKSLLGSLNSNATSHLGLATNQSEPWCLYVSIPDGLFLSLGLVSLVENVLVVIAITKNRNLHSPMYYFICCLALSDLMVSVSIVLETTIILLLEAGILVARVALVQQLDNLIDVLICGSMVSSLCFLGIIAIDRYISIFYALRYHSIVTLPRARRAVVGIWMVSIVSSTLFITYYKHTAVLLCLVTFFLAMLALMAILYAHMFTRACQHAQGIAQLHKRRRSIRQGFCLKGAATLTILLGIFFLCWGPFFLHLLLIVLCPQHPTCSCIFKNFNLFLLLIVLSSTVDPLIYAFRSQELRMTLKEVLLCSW

B1: Ac-Cys-Nle-Asp-His-D-Phe-Arg-Trp-Gly-Lys-NH2 (peptide)
chain: Ac-C[Nle]DH[dF]RWGK-NH2
SMILES: CCCC[C@H](NC(=O)[C@H](CS)NC(C)=O)C(=O)N[C@@H](CC(=O)O)C(=O)N[C@@H](Cc1c[nH]cn1)C(=O)N[C@H](Cc1ccccc1)C(=O)N[C@@H](CCCNC(=N)N)C(=O)N[C@@H](Cc1c[nH]c2ccccc12)C(=O)NCC(=O)N[C@@H](CCCCN)C(N)=O
Question: B1 was tested. Which IC50 did it give?
Answer: 2.19 ± 0.54 nM
